Experimental data: patent US20150299764A1, “IMMOBILISED CYCLIN-DEPENDENT KINASE 4 FUSION PROTEINS AND USES THEREOF” (UNIVERSITE LIBRE DE BRUXELLES, priority 2012, published 2015)

What was measured:
[1] = biological target: T1, CDK7AS (mutated version of CDK7) in HCT116K7AS cells (Homo sapiens, UniProt P50613, D92E/F91G); experiment: Rb kinase activity of streptavidin-immobilized Avi-tagged cyclin D3/CDK4 fusion from HCT116K7AS cells treated with serum and CDK7AS inhibitor; assay type: cell-based
T1 construct: These cells express only a mutated version of CDK7 (CDK7AS); endogenous in cells; host or cells: HCT116K7AS cells transduced with the Avi-tagged cyclin D3/CDK4 reporter (HCT116K7AS-V26)
T1 sequence (P50613 whole entry F91G/D92E, the tested form may be a part): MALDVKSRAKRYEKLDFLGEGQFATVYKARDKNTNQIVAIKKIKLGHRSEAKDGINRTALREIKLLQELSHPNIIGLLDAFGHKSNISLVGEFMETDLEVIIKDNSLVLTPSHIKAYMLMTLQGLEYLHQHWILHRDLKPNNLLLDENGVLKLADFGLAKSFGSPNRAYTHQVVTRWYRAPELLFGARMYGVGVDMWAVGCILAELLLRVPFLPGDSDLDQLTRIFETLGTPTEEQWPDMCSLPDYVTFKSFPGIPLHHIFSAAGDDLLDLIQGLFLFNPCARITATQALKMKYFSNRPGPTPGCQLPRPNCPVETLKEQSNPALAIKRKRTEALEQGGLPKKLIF
T1 sequence (P51946 whole entry partner, the tested form may be a part): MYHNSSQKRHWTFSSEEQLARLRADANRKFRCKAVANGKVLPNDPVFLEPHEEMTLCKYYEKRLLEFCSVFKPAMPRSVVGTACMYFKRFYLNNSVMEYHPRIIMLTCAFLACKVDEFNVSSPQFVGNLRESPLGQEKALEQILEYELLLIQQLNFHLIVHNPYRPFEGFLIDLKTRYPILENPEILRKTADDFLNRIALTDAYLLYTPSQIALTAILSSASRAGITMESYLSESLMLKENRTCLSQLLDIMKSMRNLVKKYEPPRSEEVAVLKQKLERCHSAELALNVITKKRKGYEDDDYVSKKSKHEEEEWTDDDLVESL
T1 sequence (P51948 whole entry partner, the tested form may be a part): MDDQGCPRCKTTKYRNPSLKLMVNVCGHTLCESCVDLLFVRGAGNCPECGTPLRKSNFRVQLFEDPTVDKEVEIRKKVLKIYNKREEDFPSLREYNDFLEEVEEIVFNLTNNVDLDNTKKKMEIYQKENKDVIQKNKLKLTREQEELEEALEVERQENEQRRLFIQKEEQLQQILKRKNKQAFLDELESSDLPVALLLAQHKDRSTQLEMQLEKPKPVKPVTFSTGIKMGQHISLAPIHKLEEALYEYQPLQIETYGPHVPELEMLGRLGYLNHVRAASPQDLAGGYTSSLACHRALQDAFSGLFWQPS
Procedure: In order to verify if transgenes expressed in HCT116K7AS cells after transduction with the vectors described in Example 8 could be immobilized on streptavidin-coated sepharose beads and were enzymatically active, the HCT116K7AS cells expressing the cyclin D3/CDK4 fusion protein described in the Example 14 were cultivated in 6 cm Petri dishes with 10 ml DMEM medium supplemented with 10% serum, Sodium pyruvate (1 mM), Penicillin (50 U/ml) and Streptomycin (50 μg/ml). These cells express only a mutated version of CDK7 (CDK7AS) inhibitable by bulky ATP analogs such as 1-NMPP1 (Santa Cruz). The cells were rendered quiescent by incubating them for three days in DMEM without serum, but supplemented with biotin (0.1 mM), Sodium pyruvate (1 mM), Penicillin (50 U/ml) and Streptomycin (50 μg/ml). Cells were stimulated to proliferate by adding 10% serum for 5 or 16 hours in the continuous presence of biotin (0.1 mM). As indicated, vehicle (DMSO) or CDK7AS inhibitor (1-NMPP1) were added together with serum for the same time or for an additional pulse of 1 hour. […]
The pRb kinase assay was performed on the cellular extract bound to the streptavidin-coated sepharose beads as described previously (Coulonval et al., supra). […] The phosphorylation on T826 of the pRb fragment was detected using a phospho-specific anti-pRb (T826) antibody (Epitomics). […]

[2] = test system: 48-kDa fragment (amino acid 773-928) of pRb; experiment: pRb kinase assay on HEK293T cell extract bound to streptavidin-coated sepharose beads; assay type: biochemical; details: transiently transfected HEK293T cells, P-Rb T826 immunoblot
Procedure: In order to verify if the transgenes expressed in HEK293T cells after transient transfection could be immobilized on streptavidin-coated sepharose bead and were enzymatically active, HEK293T cells were cultivated and transfected with the indicated plasmids as described in Example 12.
After transfection, cells were washed with PBS and lysed on ice in 1 ml NP-40 lysis buffer as described in Example 11. The homogenized (glass/glass) cellular lysate was sonicated 3 times and stored at −20° C. Equal amount of protein from the defrozen lysates were then incubated for 3 h at 4° C. under slight shaking with 5 μl of streptavidin-coated sepharose beads (GE Healthcare) which had been prewashed three times with NP-40 lysis buffer without inhibitors. After 3 h, beads bound with transgene are washed three times with cold NP-40 lysis buffer without inhibitors before enzymatic activities are measured.
(§1) The pRb kinase assay was performed on the cellular extract bound to the streptavidin-coated sepharose beads as described previously (Coulonval et al., 2003, Exp. Cell Res., 291, 135-149). […] Proteins were resolved by SDS-PAGE and transferred on PVDF membranes (Perkin Elmer) before the phosphorylation on T826 of the pRb fragment was detected using the phosphor-specific pRb (T826) antibody (Thermo Fisher). […]
The pRb kinase assay was performed on the cellular extract bound to the streptavidin-coated sepharose beads (GE Healthcare) as described previously (Coulonval et al., 2003, Exp. Cell Res., 291, 135-149). […] Proteins were resolved by SDS-PAGE and transferred on low fluorescence PVDF membranes (Millipore) before the phosphorylation on T826 of the pRb fragment was detected using a phospho-specific rabbit anti-pRb (T826) antibody (Epitomics). Total GST-Rb load of the membranes was quantitated using the mouse anti-GST antibody (Pierce). […]

[3] = test system: 48-kDa fragment (aa 773-928) of pRb; experiment: pRb kinase assay on MCF7 cell extract bound to streptavidin-coated sepharose beads; assay type: biochemical
Procedure: In order to verify if transgenes expressed in MCF7 cells after transduction with the vectors described in Example 8 could be immobilized on streptavidin-coated sepharose bead and were enzymatically active, the MCF7 cells expressing the luciferase or the cyclin D3/CDK4 fusion protein described in the Example 14 were cultivated in 10 cm Petri dishes with 10 ml DMEM medium supplemented with 5% serum, insulin 6 ng/ml, NEAA (Gibco) 0.1 mM, Sodium pyruvate (1 mM), Penicillin (50 U/ml) and Streptomycin (50 μg/ml). The cells were rendered quiescent by incubating them for three days in phenol-free DMEM without serum and insulin, but supplemented with biotin (0.1 mM), NEAA (0.1 mM, Gibco), Sodium pyruvate (1 mM), Penicillin (50 U/ml) and Streptomycin (50 μg/ml). During the last 24 hours, fulvestrant (10 nM) was added to the culture to block estrogen receptor action. Cells were stimulated to proliferate by adding 5% serum, 6 ng/ml insulin and 100 nM β-estradiol in the culture medium for 16 hours in the continuous presence of biotin (0.1 mM). At the end of the culture, cells were washed with PBS and lysed on ice in 1 ml NP-40 lysis buffer as described in Example 10. The homogenized (glass/glass) cellular lysate was sonicated 3 times and stored at −20° C. Equal amounts of protein from the defrozen lysate were then incubated for 3 h at 4° C. under slight shaking with 5 μl of streptavidin-coated sepharose beads which had been prewashed three times with NP-40 lysis buffer without inhibitors. After 3 h, beads bound with transgene were washed three times with cold NP-40 lysis buffer without inhibitors before enzymatic activities were measured.
as §1, with “supra).” for “2003, Exp. Cell Res., 291, 135-149).”, “phospho-specific anti-pRb” for “phosphor-specific pRb”

Molecule: CC(C)(C)n1nc(Cc2cccc3ccccc23)c2c(N)ncnc21 [1-NMPP1]
- serum stimulation of Rb kinase activity of the biotinylatable Cyclin D3/CDK4 fusion ([1]; inhibitor added during the last hour of 17 hours serum stimulation, HCT116K7AS (FIG. 12)): severely impaired
- serum induction of Rb kinase activity of the biotinylatable Cyclin D3/CDK4 fusion ([1]; inhibitor present together with serum for 5 hours, HCT116K7AS, P-Rb T826 immunoblot (FIG. 12)): prevented

B1: D3L2K4: cyclin D3 and CDK4 connected by the linker L2, SEQ ID NO. 10 (protein)
chain: MELLCCEGTRHAPRAGPDPRLLGDQRVLQSLLRLEERYVPRASYFQCVQREIKPHMRKMLAYWMLEVCEEQRCEEEVFPLAMNYLDRYLSCVPTRKAQLQLLGAVCMLLASKLRETTPLTIEKLCIYTDHAVSPRQLRDWEVLVLGKLKWDLAAVIAHDFLAFILHRLSLPRDRQALVKKHAQTFLALCATDYTFAMYPPSMIATGSIGAAVQGLGACSMSGDELTELLAGITGTEVDCLRACQEQIEAALRESLREASQTSSSPAPKAPRGSSSQGPSQTSTPTDVTAIHLASKGGGGSLEVLFQPSRMATSRYEPVAEIGVGAYGTVYKARDPHSGHFVALKSVRVPNGGGGGGGLPISTVREVALLRRLEAFEHPNVVRLMDVCATSRTDREIKVTLVFEHVDQDLRTYLDKAPPPGLPAETIKDLMRQFLRGLDFLHANCIVHRDLKPENILVTSGGTVKLADFGLARIYSYQMALTPVVVTLWYRAPEVLLQSTYATPVDMWSVGCIFAEMFRRKPLFCGNSEADQLGKIFDLIGLPPEDDWPRDVSLPRGAFPPRGPRPVQSVVPEMEESGAQLLLEMLTFNPHKRISAFRALQHSYLHKDEGNPE
- Rb kinase activity of the immobilized fusion protein [2]: No difference in Rb-kinase activity
- Rb kinase activity of the immobilized fusion protein ([2]; listed as cyclin D3/CDK4): active
- Rb kinase activity of the immobilized fusion protein ([3]; 16 h after serum/insulin/β-estradiol stimulation of MCF7 cells (FIG. 11B, lane 8)): strongly enhanced
- Rb kinase activity of the immobilized fusion protein ([3]; quiescent MCF7 cells (FIG. 11B, lane 7)): detectable

B2: D3L3K4: cyclin D3 and CDK4 connected by the Prescission-cleavable linker L3, SEQ ID NO. 79 (protein)
chain: B1 chain
- Rb kinase activity of the immobilized fusion protein [2]: No difference in Rb-kinase activity
- Rb kinase activity of the immobilized fusion protein ([3]; stable MCF7 populations cultivated with 5% serum and insulin (FIG. 16)): only detected
